Data set [1] concerns the target T1, Clostridium phytofermentans ISDg xylose isomerase (CpXI, SEQ ID NO: 11) double mutant CpXI-T63I, V162A (Lachnoclostridium phytofermentans, UniProt A9KN98, T63I/V162A).
T1 construct: cell lysate
The data set can be described thus: Xylose isomerase activity (kinetic parameters) in cell disruption solution, strain SS120. The class given is biochemical. Particulars: cell disruptate after 24 h microaerobic fermentation, xylose 10-500 mM, pH 8.0, 30° C.

Data set [2] has as its target T2, Clostridium phytofermentans ISDg xylose isomerase (CpXI, SEQ ID NO: 11) mutant CpXI-T63I (Lachnoclostridium phytofermentans, UniProt A9KN98, T63I).
T2 construct: cell lysate
Put plainly: Xylose isomerase activity (kinetic parameters) in cell disruption solution, strain SS82. The class given is biochemical. Particulars: T63I vs wild type CpXI.

Data set [3] deals with T3, Clostridium phytofermentans ISDg xylose isomerase (CpXI, SEQ ID NO: 11) mutant CpXI-N303T (Lachnoclostridium phytofermentans, UniProt A9KN98, N303T).
T3 construct: cell lysate
Put plainly: Xylose isomerase activity (kinetic parameters) in cell disruption solution, strain SS105. Format: biochemical. Particulars: cell disruptate after 24 h microaerobic fermentation, xylose 10-500 mM, pH 8.0, 30° C. From the text: (§1) The created mutant CpXI-V162A gene expression plasmid (Table 3: plasmid No. 31) and CpXI-N303T gene expression plasmid (Table 3: plasmid No. 32) were cleaved with BsiWI and used for transformation of strain SS29. The obtained strains were designated as strain SS104 (Table 4: strain No. 29) and strain SS105 (Table 4: strain No. 30), respectively.

In data set [4] the test system is Piromyces sp. E2 xylose isomerase mutant E15D, E114G, E129D, T142S, A177T and V433I. Particulars: mutant vs wild type Piromyces sp. E2 xylose isomerase; NPL 10; cited from earlier work.
For data set [5], the target named is T4, Clostridium phytofermentans ISDg xylose isomerase (CpXI, SEQ ID NO: 11) mutant CpXI-V162A, N303T (Lachnoclostridium phytofermentans, UniProt A9KN98, N303T/V162A).
T4 construct: cell lysate
The data set can be described thus: Xylose isomerase activity (kinetic parameters) in cell disruption solution, strain SS92. The class given is biochemical. Particulars: N303T vs wild type CpXI.

The target of data set [6] is Clostridium phytofermentans ISDg xylose isomerase (CpXI), wild type, SEQ ID NO: 11 (Lachnoclostridium phytofermentans, UniProt A9KN98).
Substrate in data set [7]: OC1OC[C@@H](O)[C@H](O)[C@H]1O
Put plainly: cells, lysate or membranes. Particulars: cell disruptate after 24 h microaerobic fermentation, xylose 10-500 mM, pH 8.0, 30° C. Format: biochemical, Clostridium phytofermentans ISDg.

Substrate in data set [8]: OC1OC[C@@H](O)[C@H](O)[C@H]1O
The data set can be described thus: cells, lysate or membranes. Particulars: other: wild type (SS81), cell disruptate after 24 h microaerobic fermentation, xylose 10-500 mM, pH 8.0, 30° C.

Substrate in data set [9]: OC1OC[C@@H](O)[C@H](O)[C@H]1O
Put plainly: cells, lysate or membranes. Format: biochemical, Clostridium phytofermentans ISDg. Particulars: cell disruptate after 24 h microaerobic fermentation, xylose 10-500 mM, pH 8.0, 30° C.
From the text: as §1
The source holds these as a separate data set.

Regarding `OC1OC[C@@H](O)[C@H](O)[C@H]1O` (stereo partly drawn) [xylose, D-xylose], the Vmax value in data set [1] was determined as 0.104 ± 0.003 μmol mg protein^−1 min^−1; in [3] it was 0.030 ± 0.001 μmol mg protein^−1 min^−1; in data set [6], 0.66 μmol/mg protein/min. Moreover, the “metabolic activity (Vmax) higher than the wild type” value in [2] was 38%. Moreover, the “Km value compared with the wild type” value in data set [4] is recorded as “approximately twice as high”. The “Vmax value larger than the wild type” value in data set [4] is given as 77%. Also, in data set [5], the “Vmax value compared with the wild type” value is recorded as “equivalent to the wild type”.

B1: Clostridium phytofermentans ISDg xylose isomerase (CpXI, SEQ ID NO: 11) mutant CpXI-T63I (Lachnoclostridium phytofermentans ISDg; T63I) (protein)
chain: MKNYFPNVPEVKYEGPNSTNPFAFKYYDANKVVAGKTMKEHCRFALSWWHTLCAGGADPFGVITMDRTYGNITDPMELAKAKVDAGFELMTKLGIEFFCFHDADIAPEGDTFEESKKNLFEIVDYIKEKMDQTGIKLLWGTANNFSHPRFMHGASTSCNADVFAYAAAKIKNALDATIKLGGKGYVFWGGREGYETLLNTDLGLELDNMARLMKMAVEYGRANGFDGDFYIEPKPKEPTKHQYDFDTATVLAFLRKYGLEKDFKMNIEANHATLAGHTFEHELAMARVNGAFGSVDANQGDPNLGWDTDQFPTDVHSATLAMLEVLKAGGFTNGGLNFDAKVRRGSFEFDDIAYGYIAGMDTFALGLIKAAEIIDDGRIAKFVDDRYASYKTGIGKAIVDGTTSLEELEQYVLTHSEPVMQSGRQEVLETIVNNILFR
notes: cell lysate
For the molecule B1, in [7] (other: T63I (SS82)), the Km (commonly the substrate concentration at which the rate is half of its maximum) stood at 29.2 mM and the Vmax (in general, the top rate of the reaction or transport when substrate is in excess) was 0.091 µmol/min/mg.

B2: Clostridium phytofermentans ISDg xylose isomerase (CpXI), wild type, SEQ ID NO: 11 (Lachnoclostridium phytofermentans ISDg) (protein)
chain: MKNYFPNVPEVKYEGPNSTNPFAFKYYDANKVVAGKTMKEHCRFALSWWHTLCAGGADPFGVTTMDRTYGNITDPMELAKAKVDAGFELMTKLGIEFFCFHDADIAPEGDTFEESKKNLFEIVDYIKEKMDQTGIKLLWGTANNFSHPRFMHGASTSCNADVFAYAAAKIKNALDATIKLGGKGYVFWGGREGYETLLNTDLGLELDNMARLMKMAVEYGRANGFDGDFYIEPKPKEPTKHQYDFDTATVLAFLRKYGLEKDFKMNIEANHATLAGHTFEHELAMARVNGAFGSVDANQGDPNLGWDTDQFPTDVHSATLAMLEVLKAGGFTNGGLNFDAKVRRGSFEFDDIAYGYIAGMDTFALGLIKAAEIIDDGRIAKFVDDRYASYKTGIGKAIVDGTTSLEELEQYVLTHSEPVMQSGRQEVLETIVNNILFR
On to B2, for which, in [8], the Km came to 46.9 mM and the maximum rate (Vmax) was determined as 0.066 µmol/min/mg.

B3: Clostridium phytofermentans ISDg xylose isomerase (CpXI, SEQ ID NO: 11) mutant CpXI-V162A (Lachnoclostridium phytofermentans ISDg; V162A) (protein)
chain: MKNYFPNVPEVKYEGPNSTNPFAFKYYDANKVVAGKTMKEHCRFALSWWHTLCAGGADPFGVTTMDRTYGNITDPMELAKAKVDAGFELMTKLGIEFFCFHDADIAPEGDTFEESKKNLFEIVDYIKEKMDQTGIKLLWGTANNFSHPRFMHGASTSCNADAFAYAAAKIKNALDATIKLGGKGYVFWGGREGYETLLNTDLGLELDNMARLMKMAVEYGRANGFDGDFYIEPKPKEPTKHQYDFDTATVLAFLRKYGLEKDFKMNIEANHATLAGHTFEHELAMARVNGAFGSVDANQGDPNLGWDTDQFPTDVHSATLAMLEVLKAGGFTNGGLNFDAKVRRGSFEFDDIAYGYIAGMDTFALGLIKAAEIIDDGRIAKFVDDRYASYKTGIGKAIVDGTTSLEELEQYVLTHSEPVMQSGRQEVLETIVNNILFR
notes: cell lysate
Regarding B3, in data set [9] (other: V162A (SS104)), the Km amounted to 29.5 mM and the Vmax was 0.063 µmol/min/mg.

B4: Clostridium phytofermentans ISDg xylose isomerase (CpXI, SEQ ID NO: 11) mutant CpXI-V162A, N303T (Lachnoclostridium phytofermentans ISDg; N303T/V162A) (protein)
chain: MKNYFPNVPEVKYEGPNSTNPFAFKYYDANKVVAGKTMKEHCRFALSWWHTLCAGGADPFGVTTMDRTYGNITDPMELAKAKVDAGFELMTKLGIEFFCFHDADIAPEGDTFEESKKNLFEIVDYIKEKMDQTGIKLLWGTANNFSHPRFMHGASTSCNADAFAYAAAKIKNALDATIKLGGKGYVFWGGREGYETLLNTDLGLELDNMARLMKMAVEYGRANGFDGDFYIEPKPKEPTKHQYDFDTATVLAFLRKYGLEKDFKMNIEANHATLAGHTFEHELAMARVNGAFGSVDANQGDPTLGWDTDQFPTDVHSATLAMLEVLKAGGFTNGGLNFDAKVRRGSFEFDDIAYGYIAGMDTFALGLIKAAEIIDDGRIAKFVDDRYASYKTGIGKAIVDGTTSLEELEQYVLTHSEPVMQSGRQEVLETIVNNILFR
notes: cell lysate
Turning to B4, in [7] (other: V162A, N303T (SS92)), the Km is listed as 28.4 mM and the Vmax stood at 0.066 µmol/min/mg.

B5: Clostridium phytofermentans ISDg xylose isomerase (CpXI, SEQ ID NO: 11) double mutant CpXI-T63I, V162A (Lachnoclostridium phytofermentans ISDg; T63I/V162A) (protein)
chain: MKNYFPNVPEVKYEGPNSTNPFAFKYYDANKVVAGKTMKEHCRFALSWWHTLCAGGADPFGVITMDRTYGNITDPMELAKAKVDAGFELMTKLGIEFFCFHDADIAPEGDTFEESKKNLFEIVDYIKEKMDQTGIKLLWGTANNFSHPRFMHGASTSCNADAFAYAAAKIKNALDATIKLGGKGYVFWGGREGYETLLNTDLGLELDNMARLMKMAVEYGRANGFDGDFYIEPKPKEPTKHQYDFDTATVLAFLRKYGLEKDFKMNIEANHATLAGHTFEHELAMARVNGAFGSVDANQGDPNLGWDTDQFPTDVHSATLAMLEVLKAGGFTNGGLNFDAKVRRGSFEFDDIAYGYIAGMDTFALGLIKAAEIIDDGRIAKFVDDRYASYKTGIGKAIVDGTTSLEELEQYVLTHSEPVMQSGRQEVLETIVNNILFR
notes: cell lysate
In the case of B5, in [7] (other: T63I, V162A (SS120)), the Km stood at 34.4 mM and the Vmax turned out to be 0.104 µmol/min/mg.

B6: Clostridium phytofermentans ISDg xylose isomerase (CpXI, SEQ ID NO: 11) mutant CpXI-N303T (Lachnoclostridium phytofermentans ISDg; N303T) (protein)
chain: MKNYFPNVPEVKYEGPNSTNPFAFKYYDANKVVAGKTMKEHCRFALSWWHTLCAGGADPFGVTTMDRTYGNITDPMELAKAKVDAGFELMTKLGIEFFCFHDADIAPEGDTFEESKKNLFEIVDYIKEKMDQTGIKLLWGTANNFSHPRFMHGASTSCNADVFAYAAAKIKNALDATIKLGGKGYVFWGGREGYETLLNTDLGLELDNMARLMKMAVEYGRANGFDGDFYIEPKPKEPTKHQYDFDTATVLAFLRKYGLEKDFKMNIEANHATLAGHTFEHELAMARVNGAFGSVDANQGDPTLGWDTDQFPTDVHSATLAMLEVLKAGGFTNGGLNFDAKVRRGSFEFDDIAYGYIAGMDTFALGLIKAAEIIDDGRIAKFVDDRYASYKTGIGKAIVDGTTSLEELEQYVLTHSEPVMQSGRQEVLETIVNNILFR
notes: cell lysate
Take B6: in [9] (other: N303T (SS105)), the Km came out at 19.1 mM and the Vmax was 0.03 µmol/min/mg.
